In the MegaScale stability set (Tsuboyama et al. 2023):

B1: 2M8U (parent)
chain: TKAQVIEAFKVFDRDGNGYVTVDYLRKVLNELGDMMPADEIEEMIYEADPQNSGYVQYETFVGMLFL

Variants of: B1
Assay: folding stability dG (cDNA display proteolysis); higher = more stable
Details: PBS, room temperature

Row | Variant | folding stability dG [kcal/mol]
1 | TKAQVIEAFKVFDRDGNGYVTVDYLRKVLNELYDMMPADEIEEMIYEADPQNSGYVQYETFVGMLFL [G33Y] | 3.48
2 | TKAQVIEAFKVFDRDGNGYVTVDYLRKVLNELGAMMPADEIEEMIYEADPQNSGYVQYETFVGMLFL [D34A] | 3.54
3 | TKAQVIEAFKVFDRDGNGYVTVDYLRKVLNELGCMMPADEIEEMIYEADPQNSGYVQYETFVGMLFL [D34C] | 4.32
4 | TKAQVIEAFKVFDRDGNGYVTVDYLRKVLNELGEMMPADEIEEMIYEADPQNSGYVQYETFVGMLFL [D34E] | 3.77
5 | TKAQVIEAFKVFDRDGNGYVTVDYLRKVLNELGFMMPADEIEEMIYEADPQNSGYVQYETFVGMLFL [D34F] | 4.68
6 | TKAQVIEAFKVFDRDGNGYVTVDYLRKVLNELGGMMPADEIEEMIYEADPQNSGYVQYETFVGMLFL [D34G] | 3.42
7 | TKAQVIEAFKVFDRDGNGYVTVDYLRKVLNELGHMMPADEIEEMIYEADPQNSGYVQYETFVGMLFL [D34H] | 3.53
8 | TKAQVIEAFKVFDRDGNGYVTVDYLRKVLNELGIMMPADEIEEMIYEADPQNSGYVQYETFVGMLFL [D34I] | 4.72
9 | TKAQVIEAFKVFDRDGNGYVTVDYLRKVLNELGKMMPADEIEEMIYEADPQNSGYVQYETFVGMLFL [D34K] | 3.43
10 | TKAQVIEAFKVFDRDGNGYVTVDYLRKVLNELGLMMPADEIEEMIYEADPQNSGYVQYETFVGMLFL [D34L] | 4.44
11 | TKAQVIEAFKVFDRDGNGYVTVDYLRKVLNELGMMMPADEIEEMIYEADPQNSGYVQYETFVGMLFL [D34M] | 4.24
12 | TKAQVIEAFKVFDRDGNGYVTVDYLRKVLNELGNMMPADEIEEMIYEADPQNSGYVQYETFVGMLFL [D34N] | 3.58
13 | TKAQVIEAFKVFDRDGNGYVTVDYLRKVLNELGPMMPADEIEEMIYEADPQNSGYVQYETFVGMLFL [D34P] | 3.89
14 | TKAQVIEAFKVFDRDGNGYVTVDYLRKVLNELGQMMPADEIEEMIYEADPQNSGYVQYETFVGMLFL [D34Q] | 3.79
15 | TKAQVIEAFKVFDRDGNGYVTVDYLRKVLNELGRMMPADEIEEMIYEADPQNSGYVQYETFVGMLFL [D34R] | 3.51
16 | TKAQVIEAFKVFDRDGNGYVTVDYLRKVLNELGSMMPADEIEEMIYEADPQNSGYVQYETFVGMLFL [D34S] | 3.32
17 | TKAQVIEAFKVFDRDGNGYVTVDYLRKVLNELGTMMPADEIEEMIYEADPQNSGYVQYETFVGMLFL [D34T] | 3.51
18 | TKAQVIEAFKVFDRDGNGYVTVDYLRKVLNELGVMMPADEIEEMIYEADPQNSGYVQYETFVGMLFL [D34V] | 4.2
19 | TKAQVIEAFKVFDRDGNGYVTVDYLRKVLNELGWMMPADEIEEMIYEADPQNSGYVQYETFVGMLFL [D34W] | 4.49
20 | TKAQVIEAFKVFDRDGNGYVTVDYLRKVLNELGYMMPADEIEEMIYEADPQNSGYVQYETFVGMLFL [D34Y] | 4.42

Row | Variant | folding stability dG [kcal/mol]
21 | TKAQVIEAFKVFDRDGNGYVTVDYLRKVLNELGDAMPADEIEEMIYEADPQNSGYVQYETFVGMLFL [M35A] | 3.09
22 | TKAQVIEAFKVFDRDGNGYVTVDYLRKVLNELGDCMPADEIEEMIYEADPQNSGYVQYETFVGMLFL [M35C] | 3.25
23 | TKAQVIEAFKVFDRDGNGYVTVDYLRKVLNELGDDMPADEIEEMIYEADPQNSGYVQYETFVGMLFL [M35D] | 2.96
24 | TKAQVIEAFKVFDRDGNGYVTVDYLRKVLNELGDEMPADEIEEMIYEADPQNSGYVQYETFVGMLFL [M35E] | 2.98
25 | TKAQVIEAFKVFDRDGNGYVTVDYLRKVLNELGDFMPADEIEEMIYEADPQNSGYVQYETFVGMLFL [M35F] | 3.9
26 | TKAQVIEAFKVFDRDGNGYVTVDYLRKVLNELGDGMPADEIEEMIYEADPQNSGYVQYETFVGMLFL [M35G] | 2.95
27 | TKAQVIEAFKVFDRDGNGYVTVDYLRKVLNELGDHMPADEIEEMIYEADPQNSGYVQYETFVGMLFL [M35H] | 3.01
28 | TKAQVIEAFKVFDRDGNGYVTVDYLRKVLNELGDIMPADEIEEMIYEADPQNSGYVQYETFVGMLFL [M35I] | 3.69
29 | TKAQVIEAFKVFDRDGNGYVTVDYLRKVLNELGDKMPADEIEEMIYEADPQNSGYVQYETFVGMLFL [M35K] | 3.16
30 | TKAQVIEAFKVFDRDGNGYVTVDYLRKVLNELGDLMPADEIEEMIYEADPQNSGYVQYETFVGMLFL [M35L] | 3.68
31 | TKAQVIEAFKVFDRDGNGYVTVDYLRKVLNELGDNMPADEIEEMIYEADPQNSGYVQYETFVGMLFL [M35N] | 2.96
32 | TKAQVIEAFKVFDRDGNGYVTVDYLRKVLNELGDPMPADEIEEMIYEADPQNSGYVQYETFVGMLFL [M35P] | 3.12
33 | TKAQVIEAFKVFDRDGNGYVTVDYLRKVLNELGDQMPADEIEEMIYEADPQNSGYVQYETFVGMLFL [M35Q] | 3.09
34 | TKAQVIEAFKVFDRDGNGYVTVDYLRKVLNELGDRMPADEIEEMIYEADPQNSGYVQYETFVGMLFL [M35R] | 3.02
35 | TKAQVIEAFKVFDRDGNGYVTVDYLRKVLNELGDSMPADEIEEMIYEADPQNSGYVQYETFVGMLFL [M35S] | 3.07
36 | TKAQVIEAFKVFDRDGNGYVTVDYLRKVLNELGDTMPADEIEEMIYEADPQNSGYVQYETFVGMLFL [M35T] | 3.14
37 | TKAQVIEAFKVFDRDGNGYVTVDYLRKVLNELGDVMPADEIEEMIYEADPQNSGYVQYETFVGMLFL [M35V] | 3.38
38 | TKAQVIEAFKVFDRDGNGYVTVDYLRKVLNELGDWMPADEIEEMIYEADPQNSGYVQYETFVGMLFL [M35W] | 3.6
39 | TKAQVIEAFKVFDRDGNGYVTVDYLRKVLNELGDYMPADEIEEMIYEADPQNSGYVQYETFVGMLFL [M35Y] | 3.33
40 | TKAQVIEAFKVFDRDGNGYVTVDYLRKVLNELGDMAPADEIEEMIYEADPQNSGYVQYETFVGMLFL [M36A] | 3.8
